{
  "source": "paper PMC4652764",
  "about": "“The La-related protein 1-specific domain repurposes HEAT-like repeats to directly bind a 5′TOP sequence”",
  "key": {"LARP1 DM15 region [1]": {"biological_target": "T1, LARP1 DM15 region (human, UniProt Q6PKG0 873-1023)", "test": "EMSA; no specific binding; EMSA: 20 mM Tris-HCl pH 8, 150 mM NaCl, 10% glycerol, 1 mM DTT, 0.5 ug tRNA, 1 ug BSA, <2 nM RNA, 30 min on ice, native 0.5x TBE gel at 4 C", "conditions": "protein: recombinant; tags: His6-MBP removed by TEV; glycine linker remnant; label: 5'-32P"}, "LARP1 DM15 region [2]": {"biological_target": "T1, LARP1 DM15 region", "test": "EMSA; EMSA: 20 mM Tris-HCl pH 8, 150 mM NaCl, 10% glycerol, 1 mM DTT, 0.5 ug tRNA, 1 ug BSA, <2 nM RNA, 30 min on ice, native 0.5x TBE gel at 4 C", "conditions": "protein: recombinant; tags: His6-MBP removed by TEV; glycine linker remnant; label: 5'-32P"}, "LARP1 DM15 region [3]": {"biological_target": "T1, LARP1 DM15 region", "test": "EMSA; two concentration-dependent complexes; EMSA: 20 mM Tris-HCl pH 8, 150 mM NaCl, 10% glycerol, 1 mM DTT, 0.5 ug tRNA, 1 ug BSA, <2 nM RNA, 30 min on ice, native 0.5x TBE gel at 4 C", "conditions": "protein: recombinant; tags: His6-MBP removed by TEV; glycine linker remnant; label: 5'-32P"}, "LARP1 DM15 region [4]": {"biological_target": "T1, LARP1 DM15 region", "test": "EMSA; tRNA and BSA competitors; ~500 nM when corrected for active protein; EMSA: 20 mM Tris-HCl pH 8, 150 mM NaCl, 10% glycerol, 1 mM DTT, 0.5 ug tRNA, 1 ug BSA, <2 nM RNA, 30 min on ice, native 0.5x TBE gel at 4 C", "conditions": "protein: recombinant; tags: His6-MBP removed by TEV; glycine linker remnant; label: 5'-32P (EMSA, probing)"}, "LARP1 DM15 region [5]": {"biological_target": "T1, LARP1 DM15 region", "test": "EMSA; up to 30 uM protein; EMSA: 20 mM Tris-HCl pH 8, 150 mM NaCl, 10% glycerol, 1 mM DTT, 0.5 ug tRNA, 1 ug BSA, <2 nM RNA, 30 min on ice, native 0.5x TBE gel at 4 C", "conditions": "protein: recombinant; tags: His6-MBP removed by TEV; glycine linker remnant; label: 5'-32P"}},
  "data": [
    {"binder": "AAAAAAAAAAAAAAAA (ssRNA)", "note": "[A16]", "values": [
      {"measurement": "binding result", "setting": "LARP1 DM15 region [1]", "value": "no binding"}
    ]},
    {"binder": "CCUCUUUU (ssRNA)", "note": "[RPS6 first 8 nt]", "values": [
      {"measurement": "binding result", "setting": "LARP1 DM15 region [2]", "value": "no binding"}
    ]},
    {"binder": "CCCCUUCUCCCCGGCGGUUA (ssRNA)", "note": "[PABPC1 5'TOP 20mer]", "values": [
      {"measurement": "binding result", "setting": "LARP1 DM15 region [2]", "value": "no binding"}
    ]},
    {"binder": "CCUCUUUUCCG (ssRNA)", "note": "[RPS6 first 11 nt]", "values": [
      {"measurement": "binding result", "setting": "LARP1 DM15 region [2]", "value": "no binding"}
    ]},
    {"binder": "CCUCUUUUCCGUGGCGCCUCGGAGGCGUUCAGCUGCUUCAAG (ssRNA)", "note": "[RPS6-42mer]", "values": [
      {"measurement": "binding result", "setting": "LARP1 DM15 region [3]", "value": "binds"}
    ]},
    {"binder": "CACUUCUGCCGCCCCU (ssRNA)", "note": "[RPL13A 5'TOP 16mer]", "values": [
      {"measurement": "binding result", "setting": "LARP1 DM15 region [2]", "value": "no binding"}
    ]},
    {"binder": "CCUCUUUUCCGUGGCGCCUC (ssRNA)", "note": "[RPS6-20mer]", "values": [
      {"measurement": "Kd", "setting": "LARP1 DM15 region [4]", "value": "776 ± 26", "unit": "nM"}
    ]},
    {"binder": "GUGGCGCCUCGGAGGCGUUCAGCUGCUUCAAG (ssRNA)", "note": "[RPS6 deltaTOP]", "values": [
      {"measurement": "binding result", "setting": "LARP1 DM15 region [5]", "value": "no binding"}
    ]},
    {"binder": "UUUUUUUUUUUUUUUU (ssRNA)", "note": "[U16]", "values": [
      {"measurement": "binding result", "setting": "LARP1 DM15 region [1]", "value": "no binding"}
    ]}
  ]
}
